Measurements as given in patent US20140289906A1, “Compositions Having Dicamba Decarboxylase Activity and Methods of Use” (priority 2013, published 2014).
Residue numbers refer to the chain shown, from its start.

B1: 17 (protein)
chain: MARGKIALEEAFEVKGMDEEIDAQAALYIAPKDVERYKRQIVSITDERLQLSDQNGIGYSILSLTVPGIQGITDKDKAEKRARDVNNYIHDQIKDHRDRLGAFAALSMHDPRQAGHELRRCVKELGFHGALLNDVQHTGEGDDDQPLFYDQPDYDEFWRVAVELDVPVYLHPAAPLRDTLIYKQSYEDRKYLVGPPQSYCNGVALHLMGIIVNGVFDRFPNLKVIVGHMGERIPFDFWRMDHWVKGVTRPLAEKNGDTVCQKEPLYYFKRNIYITTSGHFSTQNLRYLYEWLGDERMMFSVDFPYERMEHGCQWYDDDAEKIKEALGGRDGYLRVGRDNARRLFKLTKFKDCDAV
modifications: Aspergillus niger
B2: 14 (protein, listed as Talaromyces marneffei)
chain: MARGKVSFEEAYEIPALADKSREQAALYIAPKDLDRYLSEIKSPTGGRLDISNKNGIGYTIYSLTVPGVQGIADKAKAEKHATDVNNWIYNEIKDHRDRMGAFAALSMHDPVQAGQELERCVKKLGFHGALLNNWQHAGTDGETYIFYDHPSYDVFWQKCVELDVPVYLHPSAPSGKVFDTFFKDRRYLIGPPISFAQDVALHTMGLITNGVFDRNPKLKLILGHLGERIPQDLWRTNHWLEDVERPLADSRGDTMSRKPLLYYFKNNIYVTTSGHFSTETVKFVCDYFGADRILFSVDSPYEKIEEGAGWYDKDKDNLTKALGGPQQYLDVGRENAKKLFKLGKYHDCDA
B3: 25 (protein, listed as Acidovorax avenae)
chain: MAQGKIGLEEHFAIPETLQDSAGFVPGDYWKELSLRLLDIHERRLREMDENGMEMMILSLNAPAVQAIPDTKKAVEIAVRANDFLAEQVARRPDRFQAFAALPMQDPDLATRELERCMQDLGFRGALVNGFSQVGTPENVVYYDAPQYGDFWAAVERLDAPFYLHPRNPIASWAQIYQGHPWLMGPTWAFAQETAVHALRLMASGLFDRHPGLRIILGHLGEGLPYNMWRVDHRNAWVDMPKGYPAKRKLCDYFHENFYLTTSGNFRTQTLIDALLEVGADRILFSTDWPFENVDHAAHWFDDAAISEADRLKIGRTNALSLFKLPQG
B4: 12 (protein, listed as Zymoseptoria tritici)
chain: MALGKVAFEEAFALPRFKERTTWWAGLFAVDPEKHTREINDINKLRIEKMDQFGVGYTLLSYTAPGVQDVWQQEEADALAREVNDHVAAEIKGHEDRLGALATLSMHDPQTASAELRRCIKDYGFKGALVNDTQRNDESGTGMIFYDGPEWDVFWSTVQELDVPFYLHPRNPTGVFMEKLWAPRKWLVGPPLSFAQGVSLHLLGMVTNGTFDRFPNLQVIIGHLGEHLPFDLWRINHWFEDIKKPLGLDCKKTIREYFNENIWITTSGHFSTPTLEYCIKEIGAERILFSIDYPFEKFEDACDWYDGVELDGPDTVKKIGRENAKKLFKLGAFKDDSA
B5: 18 (protein, listed as Legionella pneumophila)
chain: MAIVDFETHFITEACIDYLTQRQEVPKLVPELNGAYTMCFTPDVSLFHTSALMEELLSLNEQRLAIMDQAGVTIQVLSLTTINGIDSCPGDENKSTALAREVNDQLYSAIQKHPERFKGFASISPYDVKEGVKELERAISQLGFVGWLTHSNFGQDNYLDDKIYWPLLEAAESLNIPIYLHPNVPIMREFGKYGFALGGSALGFEFDTALCLMRMILGGVFDAFPKLKIMLGHLGETMPFLMERLDHLYRIPDLKPYRPSIQRIPSEVLRQNVYITTSGRFFVPALRYVLEVMGEDRVLFASDYPMESLLDATRFIQDSDLSNQTKQKIFSINAKNLNLI
B6: 20 (protein, listed as Legionella pneumophila)
chain: B5 chain with E31D, K112R, I163T, S173G, P256A
B7: 23 (protein, listed as Aplysina aerophoba)
chain: MAIDIDARSQPGLETARRAMSRRDFLGGAAAFGITAAATTALPASTAAGEEEDLFLLGLEEHFATAELRRLNGIQFPQGTPRFDINDVGAGRIADMDAAGIDIQVLSALTPGAQNLPGAEGVAYARRLNSWVAHEVIPAYPGRFRAFATLPLSEPQAAADELEYAVRELGFLGCMTYGAVDGKFLDHADFVPVLARAETLDVPIYIHPNWASPQVMDTYYNGLGNEWVSRVLSGAGYGWHQEVALQCLRMIASGVFDRFPRLQIIVGHMGEGLPFFYWRFGDDLARITADTLEKPVQQYFHDNFWITTSAFFRDELLRLVLSVMGEDRVMFAVDYPFVSNKVGADWFRAVDLPRNVKEKIAHKNAERLLKIGPF
B8: 27 (protein, listed as Aspergillus oryzae)
chain: MALGKIALEEAFALPRFEEKTRWWASLFSTDAETHVKEITDINKIRIEHADKHGVGYQILSYTAPGVQDIWDPVEAQALAVEINDYIAEQVRVNPDRFGAFATLSMHNPKEAADELRRCVEKYGFKGALVNDTQRAGPDGDDMIFYDNADWDIFWQTCTELDVPFYMHPRNPTGTIYEKLWADRKWLVGPPLSFAHGVSLHVLGMVTNGVFDRHPKLQIIMGHLGEHVPFDMWRINHWFEDRKKLLGLAETCKKTIRDYFAENIWITTSGHFSTTTLNFCMAEVGSDRILFSIDYPFETFSDACEWFDNAELNGTDRLKIGRENAKKLFKLDSYKDSSA
B9: 24 (protein)
chain: MALGKVVLEEAYERPNMKEKSNHEAGLYIAPNDRPRYMRQINDINQERLKLADAHGVGYTIISLTVPGIQGIFDKTEAERVATETNNWAAEQIKNHRDRLGAFACLSMHDPAQAANELRRCVQELGFHGALLCSFQHAGPDGETYLFYDQPKYDVFWKALTELDVPLYIHPAAPTGSILERLYAQRPALIGPPLSFANDVSLHTLGIISNGVFDRFPNLKIIIGHLGEHIPFDFWRIDHWFRDVKKPIADEEGRVMAQKSLYHYFKHNIWLTTSGHFSTPTLKYVVNEIGVDRVLFSVDYPYETTESGCNWWDHDKDAIVEAVGGVDNYYAIGRENAKKLLRLDKFHDSDAR
modifications: Aspergillus niger
B10: 15 (protein, listed as Metarhizium anisopliae)
chain: MAQEIAKSHETSTRFAGFAVLPMRDPEAAAKELERAVKKLGFVGALVDHKTAHGNGFCEGNEYDVLWRKAEQLAVPIYLHPSWPTEKQFQQAYAGNYSPTAAGTIGGAMFNWHSEVGHHVLRLYAAGVFDKFPKLKIIIGHFGEMIPYMLDRIREQDHRLGKTGRTFSEVYDENIWITTSGVWSLDPMRCILANTKIDHILYSVDYPFTMNERGLEWFQELEKSGLLSEEDLALIAYKNCEKLLGVKAPTQD
B11: 13 (protein, listed as Metarhizium acridum)
chain: MAHGKVALEEAFALPRLHEKTRWWASLFAVNPDKHAAEMTDITDIRINYMDKHGVGYTILSYTAPGVQDISDPKEAQALAVEINDYVAGAIKNHPDRFGAFATLSMRNPQEAATELKRCVTQYGFKGALVNDTQRAGEDDMIFYDGPEWDVFWSTVEELDVPFYLHPRNPTGSLYEKLWAKRKWLVGPPLSFAQGVSLHVLGMVTNGVFDRHPKLQVVLGHLGEHIPFDMWRINHWFEDVKKPLGLDCKKTIREYFQQNIWITTSGHFSTTTLQFCMAEVGADRILFSIDYPFECFADACDWYDGVPINLVDKAKIGRDNARRLFKLPEFKDSEKHVDA

test: 14C assay: 14CO2 capture from [14C]-carboxyl-labeled dicamba with IPTG-induced recombinant E. coli cells; details: IPTG-induced recombinant E. coli cells; 14CO2 from [14C]-carboxyl-labeled dicamba

Molecule | Dicamba Decarboxylase Activity
B1 | Low
B2 | Low
B3 | Low
B4 | No
B5 | Low
B6 | Low
B7 | Low
B8 | No
B9 | Low
B10 | Low
B11 | No

same assay, conditions: dicamba decarboxylation activity

Molecule | Enzymatic Detection level
B1 | Low
B2 | Low
B3 | Low
B4 | No
B5 | Low
B6 | Low
B7 | Low
B8 | No
B9 | Low
B10 | Low
B11 | No
